From patent publication US20090016988

Legend:
[1] = tested on: MPPT5 (proaerolysin with the MMP2 site HPVGLLAR joined by a GG linker to the uPA site SGRSAQ in the)
[2] = tested on: wild-type proaerolysin from Aeromonas hydrophila
[3] = tested on: MPPT4 (proaerolysin with the activation sequence KVRRAR changed to the MMP2 site HPVGLLAR, 6xHis tag)
[4] = tested on: MPPT1 (proaerolysin with the furin site KVRRAR replaced by the uPA site SGRSAQ, and a His tag)

In the case of active MMP2 protease (EMD/Calbiochem), the Hemolytic titer after MMP2 digestion (hemolytic titer (wells with lysed cells)) [1] is reported as 6.5, the Hemolytic titer after MMP2 digestion (hemolytic titer (wells with lysed cells)) [2] is reported as 0 and the “digestion with MMP2 (Western blot, 48 hour incubation samples)” value [2] is reported as “less than 50% digestion for PA”. For the same substance, the “digestion with MMP2, 2 hours (silver stained SDS-PAGE)” value [2] was “PA is not measurably affected by MMP2”, the “digestion with MMP2, 24 hours (silver stained SDS-PAGE)” value [2] was “a small amount of digestion for PA” and the “digestion with MMP2 (Western blot, 48 hour incubation samples)” value [3] was “complete digestion for MPPT4”. The “digestion with MMP2, 24 hours (silver stained SDS-PAGE)” value [3] was “complete digestion for MPPT4 for all concentrations shown”.

“urokinase-type plasminogen activator (uPA)” was tested, and the Hemolytic titer after uPA digestion (hemolytic titer (wells with lysed cells)) [1] was 7, the Hemolytic titer after uPA digestion (hemolytic titer (wells with lysed cells)) [2] was 5 and the Hemolytic titer, 0.016 mg/mL uPA (hemolytic titer (wells with lysed cells)) [2] was 0. For the same substance, the Hemolytic titer, 0.04 mg/mL uPA (hemolytic titer (wells with lysed cells)) [2] was 2.5, the Hemolytic titer, 0.08 mg/mL uPA (hemolytic titer (wells with lysed cells)) [2] was 6 and the “activation by uPA digestion (Coomassie stained SDS-PAGE)” value [2] was “No activated aerolysin band, and only a very faint high molecular weight oligomer band, was seen for the PA sample digested with 1 µg of uPA”. The “conversion to aerolysin by 0.016 mg/mL uPA (SDS-PAGE)” value [2] was “No PA was converted to aerolysin when treated with 0.016 mg/mL uPA under these conditions”, the “digestion with uPA, 2 hours (silver stained SDS-PAGE)” value [2] was “it is somewhat sensitive to uPA, though not to the degree seen for MPPT5” and the “digestion with uPA, 120 minutes (Coomassie stained SDS-PAGE)” value [2] was “whereas much less PA was activated”. The Hemolytic titer, 0.016 mg/mL uPA (hemolytic titer (wells with lysed cells)) [4] was 6, the Hemolytic titer, 0.04 mg/mL uPA (hemolytic titer (wells with lysed cells)) [4] was 7.5 and the Hemolytic titer, 0.08 mg/mL uPA (hemolytic titer (wells with lysed cells)) [4] was 7.5. The “activation by uPA digestion (Coomassie stained SDS-PAGE)” value [4] was “the MPPT1 sample digested with 1 µg of uPA showed an activated aerolysin band (˜48 kDa; lowest band), and a high molecular weight oligomer band”, the “conversion to aerolysin by 0.016 mg/mL uPA (SDS-PAGE)” value [4] was “MPPT1 was nearly 50% converted” and the “digestion with uPA, 120 minutes (Coomassie stained SDS-PAGE)” value [4] was “After 120 minutes, the MPPT1 is almost completely activated by 0.04 mg/mL uPA”.
